# Measured values: the RNAGym collection of RNA variant scans (doi:10.1073/pnas.2313332121)
# This sample holds only a part of the variants without activity.
# B1: TPR 5TU (parent)
# chain: GGAUCUUCUCGAUCUAACAAAAAAGACAAAUCUGCCACAAAGCUUGAGAGCAUCUUCGGAUGCAGAGGCGGCAGCCUUCGGUGGCGCGAUAGCGCCAACGUUCUCAACUAUGACACGCAAAACGCGUGCUCCGUUGAAUGGAGUUUAUCAUG
# Variants of: B1
# Experiment: polymerase ribozyme fitness, log enrichment relative to wild type (log ratio); higher = more active; in vitro selection for triplet polymerase activity
# Summary of the method: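 Input and output libraries were sequenced on Illumina after a single in vitro selection round, run in triplicate on PCR-built, transcribed mutant libraries of each subunit of a heterodimeric triplet polymerase ribozyme. Selection annealed libraries to a biotinylated primer, the partner subunit and triplets, incubated them frozen at −7 °C, then gel-excised extended constructs for streptavidin-bead capture and RT-PCR. Genotypes with ≥10 input reads and ≥1 read per output were kept. Fitness is the logarithm, taken in base 2, of genotype enrichment divided by wild-type enrichment, using inverse-variance-weighted replicate averages.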
row,Variant,polymerase ribozyme fitness (log ratio)
1,G83C U90C A107C C116A U127C A150C,≤ -4.2
2,U9G C36U C76A G94A,≤ -4.2
3,C43U U55A C87U,≤ -4.2
4,A12U A28C C57U G68A G92C G126U,≤ -4.2
5,C51U U56A C87A C95U C118A U139C,≤ -4.2
6,G25A C54U C96U A150U,-0.00287
7,G94A U146G,-1.25
8,A52G U56G G83A,-2.85
9,G11A A17C A39C,-3.25
10,A22U C75G,-3.65
11,A12C A52G,-0.179
12,A12U G42C C51U C93U C123A G124U,≤ -4.2
13,A30U A40G G50C G67A C76A C85U A89C C132U,≤ -4.2
14,A64G A91C,≤ -4.2
15,C51U C54G C85U U101G A137G U144G,≤ -4.2
16,U7C A20C A49C U77C A91U,≤ -4.2
17,A91G U127A,≤ -4.2
18,U55G C114U,-2.17
19,A12C U44A U56G G83U A89U C95A A98C C103G A107G,≤ -4.2
20,G88U C108A,≤ -4.2
21,U55A C93U,-1.68

row,Variant,polymerase ribozyme fitness (log ratio)
1,G124U G143U U148G,≤ -4.2
2,C57U A64U C114U,≤ -4.2
3,A52G U56G C85A C131U A137G,-3.95
4,G71C G92A,≤ -4.2
5,C36U C95U,-1.98
6,U4G A17U C51U A52U C57A C75G G83U G117U G136U,≤ -4.2
7,A47G U55A A91G,-2.78
8,U7C G46A G65U C76A U77G C79A G94A C96A U135A U144G G152U,≤ -4.2
9,C5U G74A A91U C93G,≤ -4.2
10,G67A C96A,-3.46
11,C69G C85U G86A,-3.62
12,A12U C87A A113U A115C U148A,≤ -4.2
13,U15A G50U C95U C99G C105U A115G A150C,≤ -4.2
14,A19G A73U G94C,-2.39
15,G48C G94A,-0.224
16,U13G G136A U144C,-2.04
17,C32U G59U G81A,-3.13
18,A91C A107U,≤ -4.2
19,U33G G48C U53A C93U C149U,≤ -4.2
20,C87U A122G,-1.83
21,U31A C36A A52G C76A C95U G124A G140U U145G,≤ -4.2

row,Variant,polymerase ribozyme fitness (log ratio)
1,A41C G68C,≤ -4.2
2,A29G C35G U56G G68A G81A C99A C114A G143C,≤ -4.2
3,A52C G94C A106G,-1.86
4,A3C C85A U130A C132G,≤ -4.2
5,A52U C75U A147U,-2.82
6,G50A G94U C116G,-1.85
7,C10G A73U G128U,≤ -4.2
8,G59A C149A,-3.65
9,U82G C96A,0.287
10,A21U A41G A60U C85U C103G C123A,-3.69
11,A30U G50A C57A C75U C85A G140U G143A,≤ -4.2
12,G58U,-0.0298
13,A16U C35U G92U C116G,-3.21
14,A22G C72A G86C C87A A110U U127C C132A U146G,≤ -4.2
15,U9A A12C A23G G42C C51A A120C A121U,≤ -4.2
16,G124C G141C,-1.16
17,A22U G58C G92U G124C,-0.925
18,U53A A66C,-4.19
19,U82C G83A C103U,-0.585
20,G59A C132G U139C,-2.96
21,U31G A37U A41C C75U C76G C96U C105U G117U G133U U134C,≤ -4.2

row,Variant,polymerase ribozyme fitness (log ratio)
1,U7A A24C G50U A52U C87G,≤ -4.2
2,U9C A22C C54U G71U G84A C95A A98U C108A C114U A115C,≤ -4.2
3,C5U U15G A39C A66U C95U,-4.2
4,A24G C85A,-2.96
5,A41C G67A G81U G94C A107C,≤ -4.2
6,C43A G58C G81C C95U C96A A122U G126C G143C,≤ -4.2
7,A41C C57U C87G A98U G136U A147C,≤ -4.2
8,A17C G48C C93G,-3.01
9,U55A C96G A115U A119G,-2.42
10,A49G G50A G140U,-3.96
11,C5G A39C C87A G126A G136C,≤ -4.2
12,A21G C36G A47C A120C G133A,≤ -4.2
13,U78C A142G,-1.33
14,U4A A22C U56A G124U U135C,-3.48
15,A37C C95U,-2.04
16,A21G C75U A98G C99G C114U,≤ -4.2
17,C43U G50U U55A C76U G136A G152U,≤ -4.2
18,C93A C116G A142G,-3.07
19,C5G G83U A98U C105U,-1.03
20,C87U C116A,1.21
21,A3G A113G C118G,-3.65
